The values below are quoted from earlier work in publication PMC8145179.

For this data set, the target named is Cys215 (UniProt position 215, PVVVHCSAGIG). The conditions noted are these: apo (ligand-free) enzyme.

As to “Protein tyrosine phosphatase 1B (PTP1B) (Homo sapiens (inferred; not stated in the article))”, the pKa is on record as 5.4.
